Laboratory results published in patent US12383631.

T1: IL-18 receptor (IL-18Rα/IL-18Rβ) on cells (HEK-Blue IL18R reporter cells, NK-92, KG-1) (human) (UniProt Q13478)
T1 sequence (looked up) 1: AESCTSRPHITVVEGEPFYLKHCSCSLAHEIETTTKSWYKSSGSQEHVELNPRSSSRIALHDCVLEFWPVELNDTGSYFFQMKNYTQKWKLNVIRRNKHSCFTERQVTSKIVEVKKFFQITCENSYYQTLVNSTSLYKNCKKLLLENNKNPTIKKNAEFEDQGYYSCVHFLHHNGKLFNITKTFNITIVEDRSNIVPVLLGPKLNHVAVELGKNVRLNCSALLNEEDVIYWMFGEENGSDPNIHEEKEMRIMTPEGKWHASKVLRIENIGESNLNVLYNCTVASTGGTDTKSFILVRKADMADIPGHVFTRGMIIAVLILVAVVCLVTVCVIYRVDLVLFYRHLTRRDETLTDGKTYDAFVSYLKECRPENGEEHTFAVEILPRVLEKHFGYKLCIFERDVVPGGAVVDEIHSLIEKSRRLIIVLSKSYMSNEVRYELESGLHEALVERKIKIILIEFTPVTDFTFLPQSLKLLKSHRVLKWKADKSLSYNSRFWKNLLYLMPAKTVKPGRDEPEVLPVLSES
T1 sequence (looked up) 2: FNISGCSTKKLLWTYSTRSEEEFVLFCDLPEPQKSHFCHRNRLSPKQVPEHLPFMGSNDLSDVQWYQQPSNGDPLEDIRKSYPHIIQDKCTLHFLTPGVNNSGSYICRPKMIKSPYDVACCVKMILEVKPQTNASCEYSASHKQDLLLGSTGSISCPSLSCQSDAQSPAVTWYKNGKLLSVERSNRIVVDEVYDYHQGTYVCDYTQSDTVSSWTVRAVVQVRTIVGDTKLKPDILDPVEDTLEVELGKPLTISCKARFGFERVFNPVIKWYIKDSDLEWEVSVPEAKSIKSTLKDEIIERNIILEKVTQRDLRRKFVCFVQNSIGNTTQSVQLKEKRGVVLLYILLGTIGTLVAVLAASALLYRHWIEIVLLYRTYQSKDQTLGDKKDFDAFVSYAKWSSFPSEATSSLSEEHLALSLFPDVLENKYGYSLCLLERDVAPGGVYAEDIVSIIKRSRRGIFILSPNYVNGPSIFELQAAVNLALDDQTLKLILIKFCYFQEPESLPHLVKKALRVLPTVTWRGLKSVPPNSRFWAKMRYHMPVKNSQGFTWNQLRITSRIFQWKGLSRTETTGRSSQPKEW

T2: human IL-18BP-His (human), O95998
T2 chain: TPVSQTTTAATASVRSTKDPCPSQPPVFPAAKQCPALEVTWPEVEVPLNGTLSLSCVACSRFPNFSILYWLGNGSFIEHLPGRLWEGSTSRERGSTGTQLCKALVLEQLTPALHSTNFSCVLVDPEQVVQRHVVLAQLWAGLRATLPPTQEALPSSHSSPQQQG


What was measured:
[1] = target: T1, IL-18 receptor (IL-18Rα/IL-18Rβ) on cells (HEK-Blue IL18R reporter cells, NK-92, KG-1) (human); test: cell-based or functional assay
[2] = target: T2, human IL-18BP-His (human), O95998; test: AlphaLISA of free IL-18BP; conditions: remark: other sources report otherwise

Binder	EC50, IFNγ secretion, NK92 cells [1] [nM]	Kd [2] [nM]
Composition F (Trastuzumab/Herceptin conjugated to IL-18 polypeptide of SEQ ID NO: 60) (protein, part only; not given: trastuzumab heavy and light chains, part only, chemical linker to the antibody; site not stated) YFGKLKSKLSVIRNLNDQVLFIDQGNRPLFEDMTDSDQRDNAPRTIFIISMYADSQPRGMAVTISVKCEKISTLSCENKIISFKEMNPPDNIKDTKSDIIFFQRSVPGHDNKMQFESSSYEGYFLACEKERDLFKLILKKEDELGDRSIMFTVQNED	0.064	
IL-18 polypeptide of SEQ ID NO: 35 (Y01G, F02A, E06K, M51G, K53A, D54A, S55A, T63A), Q14116 37-193 (ligand) GAGKLKSKLSVIRNLNDQVLFIDQGNRPLFEDMTDSDCRDNAPRTIFIISGYAAAQPRGMAVAISVKCEKISTLSCENKIISFKEMNPPDNIKDTKSDIIFFQRSVPGHDNKMQFESSSYEGYFLACEKERDLFKLILKKEDELGDRSIMFTVQNED		969
